Experimental data taken from IntAct's records for PubMed 24217340.

B1: Suppressor of fused homolog (Homo sapiens), Q9UMX1 (parent)
chain: MAELRPSGAPGPTAPPAPGPTAPPAFASLFPPGLHAIYGECRRLYPDQPNPLQVTAIVKYWLGGPDPLDYVSMYRNVGSPSANIPEHWHYISFGLSDLYGDNRVHEFTGTDGPSGFGFELTFRLKRETGESAPPTWPAELMQGLARYVFQSENTFCSGDHVSWHSPLDNSESRIQHMLLTEDPQMQPVQTPFGVVTFLQIVGVCTEELHSAQQWNGQGILELLRTVPIAGGPWLITDMRRGETIFEIDPHLQERVDKGIETDGSNLSGVSAKCAWDDLSRPPEDDEDSRSICIGTQPRRLSGKDTEQIRETLRRGLEINSKPVLPPINPQRQNGLAHDRAPSRKDSLESDSSTAIIPHELIRTRQLESVHLKFNQESGALIPLCLRGRLLHGRHFTYKSITGDMAITFVSTGVEGAFATEEHPYAAHGPWLQILLTEEFVEKMLEDLEDLTSPEEFKLPKEYSWPEKKLKVSILPDVVFDSPLH
B2: Zinc finger protein GLI1 (Homo sapiens), P08151 (parent)
chain: MFNSMTPPPISSYGEPCCLRPLPSQGAPSVGTEGLSGPPFCHQANLMSGPHSYGPARETNSCTEGPLFSSPRSAVKLTKKRALSISPLSDASLDLQTVIRTSPSSLVAFINSRCTSPGGSYGHLSIGTMSPSLGFPAQMNHQKGPSPSFGVQPCGPHDSARGGMIPHPQSRGPFPTCQLKSELDMLVGKCREEPLEGDMSSPNSTGIQDPLLGMLDGREDLEREEKREPESVYETDCRWDGCSQEFDSQEQLVHHINSEHIHGERKEFVCHWGGCSRELRPFKAQYMLVVHMRRHTGEKPHKCTFEGCRKSYSRLENLKTHLRSHTGEKPYMCEHEGCSKAFSNASDRAKHQNRTHSNEKPYVCKLPGCTKRYTDPSSLRKHVKTVHGPDAHVTKRHRGDGPLPRAPSISTVEPKREREGGPIREESRLTVPEGAMKPQPSPGAQSSCSSDHSPAGSAANTDSGVEMTGNAGGSTEDLSSLDEGPCIAGTGLSTLRRLENLRLDQLHQLRPIGTRGLKLPSLSHTGTTVSRRVGPPVSLERRSSSSSSISSAYTVSRRSSLASPFPPGSPPENGASSLPGLMPAQHYLLRARYASARGGGTSPTAASSLDRIGGLPMPPWRSRAEYPGYNPNAGVTRRASDPAQAADRPAPARVQRFKSLGCVHTPPTVAGGGQNFDPYLPTSVYSPQPPSITENAAMDARGLQEEPEVGTSMVGSGLNPYMDFPPTDTLGYGGPEGAAAEPYGARGPGSLPLGPGPPTNYGPNPCPQQASYPDPTQETWGEFPSHSGLYPGPKALGGTYSQCPRLEHYGQVQVKPEQGCPVGSDSTGLAPCLNAHPSEGPPHPQPLFSHYPQPSPPQYLQSGPYTQPPPDYLPSEPRPCLDFDSPTHSTGQLKAQLVCNYVQSQQELLWEGGGREDAPAQEPSYQSPKFLGGSQVSPSRAKAPVNTYGPGFGPNLPNHKSGSYPTPSPCHENFVVGANRASHRAAAPPRLLPPLPTCYGPLKVGGTNPSCGHPEVGRLGGGPALYPPPEGQVCNPLDSLDLDNTQLDFVAILDEPQGLSPPPSHDQRGSSGHTPPPSGPPNMAVGNMSVLLRSLPGETEFLNSSA
partner: B1 chain

Variants of: B1
Conditions: with gli1_human GLI1, P08151

| effect of a mutation on the interaction | Variant |
| --- | --- |
| disrupting interaction | MAELRPSGAPGPTAPPAPGPTAPPAFASLFPPGLHAIYGECRRLYPDQPNPLQVTAIVKYWLGGPDPLDYVSMYRNVGSPSANIPEHWHYISFGLSDLYGDNRVHEFTGTDGPSGFGFELTFRLKRETGESAPPTWPAELMQGLARRVFQSENTACSGAHVSWHSPLDNSESRIQHMLLTEDPQMQPVQTPFGVVTFLQIVGVCTEELHSAQQWNGQGILELLRTVPIAGGPWLITDMRRGETIFEIDPHLQERVDKGIETDGSNLSGVSAKCAWDDLSRPPEDDEDSRSICIGTQPRRLSGKDTEQIRETLRRGLEINSKPVLPPINPQRQNGLAHDRAPSRKDSLESDSSTAIIPHELIRTRQLESVHLKFNQESGARIPLCLRGRLLHGRHFTYKSITGDMAITFVSTGVEGAFATEEHPYAAHGPWLQILLTEEFVEKMLEDLEDLTSPEEFKLPKEYSWPEKKLKVSILPDVVFDSPLH [Y147R;F155A;D159A;L380R] |
| decreasing interaction | MAELRPSGAPGPTAPPAPGPTAPPAFASLFPPGLHAIYGECRRLYPDQPNPLQVTAIVKYWLGGPDPLDYVSMYRNVGSPSANIPEHWHYISFGLSDLYGDNRVHEFTGTDGPSGFGFELTFRLKRETGESAPPTWPAELMQGLARRVFQSENTACSGDHVSWHSPLDNSESRIQHMLLTEDPQMQPVQTPFGVVTFLQIVGVCTEELHSAQQWNGQGILELLRTVPIAGGPWLITDMRRGETIFEIDPHLQERVDKGIETDGSNLSGVSAKCAWDDLSRPPEDDEDSRSICIGTQPRRLSGKDTEQIRETLRRGLEINSKPVLPPINPQRQNGLAHDRAPSRKDSLESDSSTAIIPHELIRTRQLESVHLKFNQESGALIPLCLRGRLLHGRHFTYKSITGDMAITFVSTGVEGAFATEEHPYAAHGPWLQILLTEEFVEKMLEDLEDLTSPEEFKLPKEYSWPEKKLKVSILPDVVFDSPLH [Y147R;F155A] |
| disrupting interaction | MAELRPSGAPGPTAPPAPGPTAPPAFASLFPPGLHAIYGECRRLYPDQPNPLQVTAIVKYWLGGPDPLDYVSMYRNVGSPSANIPEHWHYISFGLSDLYGDNRVHEFTGTDGPSGFGFELTFRLKRETGESAPPTWPAELMQGLARRVFQSENTFCSGRHVSWHSPLDNSESRIQHMLLTEDPQMQPVQTPFGVVTFLQIVGVCTEELHSAQQWNGQGILELLRTVPIAGGPWLITDMRRGETIFEIDPHLQERVDKGIETDGSNLSGVSAKCAWDDLSRPPEDDEDSRSICIGTQPRRLSGKDTEQIRETLRRGLEINSKPVLPPINPQRQNGLAHDRAPSRKDSLESDSSTAIIPHELIRTRQLESVHLKFNQESGALIPLCLRGRLLHGRHFTYKSITGDMAITFVSTGVEGAFATEEHPYAAHGPWLQILLTEEFVEKMLEDLEDLTSPEEFKLPKEYSWPEKKLKVSILPDVVFDSPLH [Y147R;D159R] |
| disrupting interaction | MAELRPSGAPGPTAPPAPGPTAPPAFASLFPPGLHAIYGECRRLYPDQPNPLQVTAIVKYWLGGPDPLDYVSMYRNVGSPSANIPEHWHYISFGLSDLYGDNRVHEFTGTDGPSGFGFELTFRLKRETGESAPPTWPAELMQGLARRVFQSENTFCSGRHVSWHSPLDNSESRIQHMLLTEDPQMQPVQTPFGVVTFLQIVGVCTEELHSAQQWNGQGILELLRTVPIAGGPWLITDMRRGETIFEIDPHLQERVDKGIETDGSNLSGVSAKCAWDDLSRPPEDDEDSRSICIGTQPRRLSGKDTEQIRETLRRGLEINSKPVLPPINPQRQNGLAHDRAPSRKDSLESDSSTAIIPHELIRTRQLESVHLKFNQESGARIPLCLRGRLLHGRHFTYKSITGDMAITFVSTGVEGAFATEEHPYAAHGPWLQILLTEEFVEKMLEDLEDLTSPEEFKLPKEYSWPEKKLKVSILPDVVFDSPLH [Y147R;D159R;L380R] |

Variants of: B1
Conditions: with gli1_human GLI1, P08151
Remark: another data set of the same source

| effect of a mutation on the interaction | Variant |
| --- | --- |
| disrupting interaction | MAELRPSGAPGPTAPPAPGPTAPPAFASLFPPGLHAIYGECRRLYPDQPNPLQVTAIVKYWLGGPDPLDYVSMYRNVGSPSANIPEHWHYISFGLSDLYGDNRVHEFTGTDGPSGFGFELTFRLKRETGESAPPTWPAELMQGLARRVFQSENTACSGDHVSWHSPLDNSESRIQHMLLTEDPQMQPVQTPFGVVTFLQIVGVCTEELHSAQQWNGQGILELLRTVPIAGGPWLITDMRRGETIFEIDPHLQERVDKGIETDGSNLSGVSAKCAWDDLSRPPEDDEDSRSICIGTQPRRLSGKDTEQIRETLRRGLEINSKPVLPPINPQRQNGLAHDRAPSRKDSLESDSSTAIIPHELIRTRQLESVHLKFNQESGALIPLCLRGRLLHGRHFTYKSITGDMAITFVSTGVEGAFATEEHPYAAHGPWLQILLTEEFVEKMLEDLEDLTSPEEFKLPKEYSWPEKKLKVSILPDVVFDSPLH [Y147R;F155A] |

Variants of: B1
Conditions: with gli2_mouse Gli2, Q0VGT2

| effect of a mutation on the interaction | Variant |
| --- | --- |
| disrupting interaction | MAELRPSGAPGPTAPPAPGPTAPPAFASLFPPGLHAIYGECRRLYPDQPNPLQVTAIVKYWLGGPDPLDYVSMYRNVGSPSANIPEHWHYISFGLSDLYGDNRVHEFTGTDGPSGFGFELTFRLKRETGESAPPTWPAELMQGLARRVFQSENTFCSGRHVSWHSPLDNSESRIQHMLLTEDPQMQPVQTPFGVVTFLQIVGVCTEELHSAQQWNGQGILELLRTVPIAGGPWLITDMRRGETIFEIDPHLQERVDKGIETDGSNLSGVSAKCAWDDLSRPPEDDEDSRSICIGTQPRRLSGKDTEQIRETLRRGLEINSKPVLPPINPQRQNGLAHDRAPSRKDSLESDSSTAIIPHELIRTRQLESVHLKFNQESGARIPLCLRGRLLHGRHFTYKSITGDMAITFVSTGVEGAFATEEHPYAAHGPWLQILLTEEFVEKMLEDLEDLTSPEEFKLPKEYSWPEKKLKVSILPDVVFDSPLH [Y147R;D159R;L380R] |

Variants of: B2
Conditions: with sufu_human SUFU, Q9UMX1

| effect of a mutation on the interaction | Variant |
| --- | --- |
| decreasing interaction | G122A;H123A;L124D |
